The text below walks through data of the nanobody polyreactivity screen of Harvey et al. (2022).

The series in a line: yeast display, Sf9 membrane polyspecificity reagent, FACS + sequencing; frameworks hold sequencing errors. In short, it runs like this: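 A synthetic nanobody library was expressed on Saccharomyces cerevisiae BJ5465 by galactose induction for 36–48 hours. The library was stained for 1 hour at 4 °C with 10% biotinylated, detergent-solubilized Sf9 membrane reagent and enriched with streptavidin microbeads before FACS. Low and high (top ~1%) gates were set on anti-HA fluorescence for expression and streptavidin fluorescence for reagent binding, and each polyreactivity label reflects the gate of origin.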
“QFQLVESGGGLVQAGGSLRLSCAASGSTFKYSAMGWYRQAPGKERELVAIIRSGGRTNYADSVKGRFTISRDNAKNTVYLQMNSLKPEDTAVYYCNARYGRYYGAYEYWGQGTQVTVSS”: the “polyreactivity (PSR sort gate)” value is reported as “high polyreactivity”.

On to “QFQLVESGGGLVQAGGSLRLSCAASGSTFPLYAMGWYRPAPGKERELVAAITSGGGNTYYADSVKGRFTISRDNAKNTVYLQMNSLKPEDTAVYSCAAVGGYKSYYSYEYDYWGQGTQVTVSS”, for which the “polyreactivity (PSR sort gate)” value is on record as “low polyreactivity”.

As to “QFQLVESGGGLVQAGGSLRLSCAASGSTFTNYAMGWYRQAPGKEREFVAAITFRGGRTYYADSVKGRFTISRHNAKNTVYLQLNSLKPEDTAVYYCNKRTSPKRFDYWGQGTQVTVSS”, the “polyreactivity (PSR sort gate)” value is “high polyreactivity”. Regarding “QFQLVESGGGLVQAGGSLRLSCAASGTFGSYAMGWYRHAPGKERELVASISGTGGDTYYADSVKGRFTISRDNAKNTVYLQMNSLKPEDTAVYYCAARWSRYWYLGSWLYDYWGQGSQVTVSS”, the “polyreactivity (PSR sort gate)” value is “high polyreactivity”. The same measure for “QFQLVESGGGLVQAGGSLRLSCADSGFIFFSNARPWYRHAPGKDRELVAVIDRATSTYYADSVKGRFTISRDNAKYTVYLQMNSLKPEDTAVYYCNADGEEVYDCNYFLSFKGDYWGQGTQVTVSS”: “low polyreactivity”; for “QFQLVESGGGLVQAGGTLRLSCAPSGFTFTLNPLGWYRQAPGKERQLVATIDWSGTSTYYADSVKGRFRISRDKAKNTFYLQMNCMKPVDTAVYYCARVYQGYPGFYDGEYWGQGNQVTVSS”: “low polyreactivity”; for “QFQLVESGGGLVQARGSLRLSCAASGITFPVYAMGWYRQAPGKEREFVASIRFSTGRTYYADSVKGRFTISRDNAKNTVYLQINSLKPEDTAVYYCRGSTQSPYNSWGQGTQVTVSS”: “high polyreactivity”. Under “QFQLVESGGGLVQPGGSLRLSCAASGGIFKRYAIGWYRQAPGKERELVAGISRRSGRTYYADSVKGRFTISRDNAKNTVYLQMNSLKPEDTAVFYCAARGIGGYDYWGHGTQVTVSS” stands “high polyreactivity”. Under “QFQLVESGGGLVQSGGSLRLSCAPTGLIFRPYAMGCYRQAPGKERELVAGINSGGNTDYADSVKGRFTISRDNAKNTVYLQMNSLKPEDTAVYYCNREYQVTIYDYCGQGTQVTVSS” stands “low polyreactivity”; under “QFQLVESVGGLVQAGGSLRLSCAASGFTFPSYAMGWYRQAPGKERELVAAISYRGGRTYYADSVKWRFTISRDNAKNTVYLQMNSLKPEDTAVYYCNALFATVPPWGFDYWGQGTQVTVSS”, “high polyreactivity”; under “QFQLVESVGGLVQAGGSLRLSCAASGLNFSNYAMGWYRQAPGKERELVAVSSSRVSRTYYADSVKGRFTISRDNAKNTVYLQMISLKPEDTAVYYCAARDRTEFYYWGQGTQVTVSS”, “high polyreactivity”. Consider “QFQLVESWGGLVPPGGILRLSCAASRSTFRYYPIGRYRQAPGHERELVAVISSSGSRTNYADSVKGRFTISRDTAKNTVYLQLNSLKPEDSAVYYCGAVSSYRYYADYYWGQGTQVTVSS”, for which the “polyreactivity (PSR sort gate)” value is on record as “high polyreactivity”. Under “QFQLVETVGGLVQAGGSLRLSCAASGSIFPGYAMGWYRQAPGKERELVATITWSGGSTYYADSVKGRFTISRDNAKNTVYLQMYSLIPEDTAVYYFNADSNWYYQWNYYGLYDYWGKGTQVTVSS” stands “low polyreactivity”; under “QFQRVESGGGLVQAGGSLRLSCAASGRILSYKVMGWYRQAPGKEREFVASIRRTGVRTYYADSVKGRFTISRDNAKNTVYLQINSLKPEDTGVYYCNAANFHFWDYYYWGQGTQVTVSS”, “low polyreactivity”; under “QGHLRESGGGLVQAGGSLRLTCAASGSNLWQYAMGWYRQATGKERELVAAITYSGGSTHYADSVKGRFTISRDNAKNTVYLQLNSLKPEDTAVYYCAAGSWYRYAALRYDHWGQGTQVTVST”, “low polyreactivity”.

Take “QGHLVESGGGLVQAGGSLRLSCAASGITLTRYAMGWYRQAPWKERELVAAISTGGGSTYYADSVKGRFTFSRDNAKNTVYLQMNSLKPEDTAVYYCAARIRFARGYPITRTYDYWGQGTQVTVSS”: the “polyreactivity (PSR sort gate)” value is recorded as “high polyreactivity”. Under “QGHLVESGGRLVQAGGSLRLSCAASGRIFPTYTMGWYRQAPWKERELVAAIRRGGGRTYYADSVKGRFTISRDNAKKTVYLQMNSLKPEDTAVYYCAAPFYRQSLIEYDYWGQGTQVTVSS” stands “high polyreactivity”. The same measure for “QGQHVESGGGLVQAGGRLRLSCAASGSTFGDNAMGWSRQAPGKERELVAAISSGSGGSTYYADSVKGRFTISRDNAKNTVYLQMNSLKPEDTAVYYCADVGPYGYYYGHYGYWGQGTQVTVSS”: “low polyreactivity”; for “QGQHVESGGGLVQAGGSLRLICAASGRIIVHYVMGWYRQAPRKERELVAAISRSGGRTYYADSVKGRFTISRDNAKNTVYLQMNSLKPEDTAVYYCATDASTDKYDYWGQGTQVTVSS”: “high polyreactivity”; for “QGQHVETGGGLVQAGGRLRLSCAASGSTLRDYVMGWSRQAPGKERELVAAITSRVDDTYYADSVKGRFTISRDNAKNTVYLQMNSLKPEDTAVYYCAADSSVTLRIGGYYWFYAFDYWGQGTQVTVSS”: “low polyreactivity”.

For the sequence “QGQLEESGGGLVQAGGSLRLSCAASGITFNDYTMGWYRQAPGKEMELVAVITKTGSRTYYADSVKGRFTISRDNAKNTVYLQMNSLKPEDTAVYYCNALYYIHYYQGYGYWGQGTQVTVSS”, the “polyreactivity (PSR sort gate)” value is “high polyreactivity”. Under “QGQLEESGGGLVQAGGSLRLSCAASGNTFRSYAMGSYRQAPGKERELVAAISGRGGSTYYADSVKGRFTISRDNAKYTVFVQLNSLKPDDTAVYYCAAESRRVNYANDDWGQGTQVTVSS” stands “high polyreactivity”; under “QGQLGESGGGLVQAGGSLRLSCAASGGTFYYYAMGWYRHAPGKEREFVAAITWTGGRTYYADSVKGRFTISRDNAKNTVYLQMNSLKPEDSAVYYCAASDRYGGRDYWGQGTQVTVSS”, “high polyreactivity”; under “QGQLLESAGGLLQAGGSLRLSSAASGFNFQQYVMGWYRQARGNERELVASISRRGSRTYYADSVKGGFTISRDNAKNTVYLQMNSLKPEDTAVYYCAAPPSTSEGPYGYWGQGTQVSVSS”, “high polyreactivity”. The same measure for “QGQLQESGGGLVKAGGSLRLSCPASGNISNHKDMGWYRQAPGKESEFVAGITAGGITNYADSVTGRFTICRDNAKNTVDLVMNSLKPEDTAVYYSAAYPDYAKSYGYWGQGTQATVSS”: “low polyreactivity”; for “QGQLVESAGGLVQAGGSLRLSCGASGRSFYSYTMGWYRQAPVKERELVAAITRADRTHYADSVKGRFTISRDYATKHVDCERNSQKPEDTAVYYAATRQVYSVRYYYRGQGTQVTVSS”: “high polyreactivity”; for “QGQLVESGGGLGQAGGSLRLSCGASGRTFDSYAMGWYRPAPGKEREFVAAISYSGTSTYYAVSVTGRFTISRDKAKNTVYLQMNSLIPEDTAVYYCAKEYTFRQWGQGTQVTVSS”: “low polyreactivity”. The same measure for “QGQLVESGGGLVQAGCSLRLSCAASGITYTPYALGWYRQAPGKAREFVASISVSGGSTYYADSVKGRFRFSRVNAKNTVYLEMNCLKPEDTAVYYCNAVSYRKHYFNSLYGYWGLGTQVTVSS”: “high polyreactivity”; for “QGQLVESGGGLVQAGGCLRLSCAASGAIFCYAMGWYRQAPGKERDLVAAISFSGVSTYYADSVKGRFTISRENAKNSVYLQMISLIPEDTAVYYCNAYSDGDEDYWGQGTKVTVSS”: “low polyreactivity”.

Consider “QGQLVESGGGLVQAGGILRLSCAASGIIFCRYAMGWYRQAPGKERELVATITWRGGSTYYADSVKARFTNSRDNAKNTVYLQMNSLKPEDTAVYSSAADTRPSRSFRARDYWGQGTQVTVSS”, for which the “polyreactivity (PSR sort gate)” value was “low polyreactivity”.
